Patent US20160333060A1 (UNITED STATES OF AMERICA AS REPRESENTED BY THE SECRETARY …, published 2016)

Biological target: T1, recombinant HIV-1HXB2 gp41 (Vybion Inc.) (HIV-1 HXB2, UniProt P04578 541-682)
T1 construct: domain: gp41; Bought reagent; also called rgp41
Assay: ELISA, plate-bound recombinant HIV-1HXB2 gp41, serial dilutions of rCNID-1-Trx, detection with rabbit anti-CNID-1

B1: recombinant CNID-1 in fusion with thioredoxin (thioredoxin-hexahistidine-CNID-1) (other)
chain: GRATLGQLKTSTIPPVTFDVPFDGANIPQDVRFTIATVNGGKGALYNAELGESAGHTIVLESDGDHPIPGTFDPKSGRGLDYLPRGLVLFSSHNYVGNMKMYTEPDSDITADFPPGTPFGVSSAITGEGSAFQLNTGIDHTGEFEIIPPNTKRNLAGVFDNEIRSVSPTGGK
modifications: Europium label in the reference-protein ELISA only; otherwise none stated
notes: The N-terminal residue of native CNID-1 is sarcosine; also called rCNID-1-Trx; CNID-1-Trx; not shown: N-terminal thioredoxin (Trx) encoded by the Novagen pET32b(+) Trx fusion vector
binding result: no binding
